In patent publication EP0562624A2, “Stabilization of functional proteins” (Modrovich, Ivan E., priority 1992, dated 1993):

Experiment: Stability of HRP in uric acid single reagent solution
Format: physicochemical
Conditions: Uric Acid SR Model
Protocol: As in Example 2 Horseradish Peroxidase (HRP) was dissolved in an aqueous base containing 50 mg/ml BSA and 10 mg/ml Tris with no pH adjustment. HRP concentration was 30 mg/ml.
EDAC and PSL solutions were formed as in Example 2 as in relative concentrations of 100 mg/ml and 20 mg/ml. The PSL solution was added in an amount of 0.14 ml per 0.5ml of HRP solution dropwise over an ice bath. This was followed by the addition of the EDAC solution in an amount of 0.05 ml per 0.5 ml of HRP solution. The mixture was stored at 4°C for 4 days and evaluated for the stability of HRP in a uric acid single reagent solution.
This is reported in Table 4 where the Control 4 is the unmodified horseradish peroxidase.

Substance: Example 4: Horseradish Peroxidase (HRP) stabilized with PSL and EDAC
- %HRP of 4°C (1 day at 4°C): 100%
- %HRP of 4°C (1 day at 41°C): 70%
- %HRP of 4°C (3 days at 4°C): 100%
- %HRP of 4°C (3 days at 41°C): 35%
